The source of these data is patent US20140255414A1.

For the assay, the target named is Aβ(pE11-30) peptide. Kind of assay: direct ELISA, adsorbed Aβ(pE11-30), 1 µg/ml biotinylated antibody with SA-HRP. Background: ELISA stands for enzyme-linked immunosorbent assay.
Aβ(pE11-30) peptide, sequence (peptide, as listed by the source): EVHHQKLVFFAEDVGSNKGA

Substance “biotinylated monoclonal mouse anti Aβ(17-24) antibody (clone 4G8, Covance)” gave an ELISA signal relative to clone 13 of 5 times lower.
